B1: ANKRD40 (parent)
chain: SLRENDFIEIELDRQELTYQELLR

Variants of: B1
Assay: protein stability index of a GFP-peptide fusion (GPS, HEK-293T) (PSI 1-6); higher = more stable
Details: c terminus: a fixed tail appended
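Further: lentivirally expressed fusions sorted by FACS into six bins by GFP to DsRed ratio, PSI derived from sequencing read proportions per bin multiplied by bin number.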

| Variant | protein stability index |
| --- | --- |
| SLRENDFIEIELDRQELFYQELLR | 1.85 |
| SLRENDFIEIELDRQELYYQELLR | 2.59 |
| SLRENDFIEIELDRQELAYQELLR | 3.06 |
| SLRENDFIEIELDRQELPYQELLR | 3.28 |
| SLRENDFIEIELDRQELQYQELLR | 3.37 |
| SLRENDFIEIELDRQELEYQELLR | 3.49 |
| SLRENDFIEIELDRQELHYQELLR | 3.2 |
| SLRENDFIEIELDRQELNYQELLR | 3.5 |
| SLRENDFIEIELDRQELWYQELLR | 2.73 |
| SLRENDFIEIELDRQELGYQELLR | 3.53 |
| SLRENDFIEIELDRQELIYQELLR | 2.1 |
| SLRENDFIEIELDRQELRYQELLR | 3.29 |
| SLRENDFIEIELDRQELDYQELLR | 3.71 |
| SLRENDFIEIELDRQELKYQELLR | 2.93 |
| SLRENDFIEIELDRQELCYQELLR | 2.46 |
| SLRENDFIEIELDRQELSYQELLR | 3.55 |
| SLRENDFIEIELDRQELLYQELLR | 2.49 |
| SLRENDFIEIELDRQELMYQELLR | 2.12 |
| SLRENDFIEIELDRQELVYQELLR | 2.22 |
| SLRENDFIEIELDRQEYTYQELLR | 3.28 |
| SLRENDFIEIELDRQEITYQELLR | 3.19 |
| SLRENDFIEIELDRQETTYQELLR | 3.35 |
| SLRENDFIEIELDRQEPTYQELLR | 2.74 |
| SLRENDFIEIELDRQENTYQELLR | 3.54 |

| Variant | protein stability index |
| --- | --- |
| SLRENDFIEIELDRQEQTYQELLR | 3.57 |
| SLRENDFIEIELDRQECTYQELLR | 3.12 |
| SLRENDFIEIELDRQESTYQELLR | 3.41 |
| SLRENDFIEIELDRQEATYQELLR | 3.11 |
| SLRENDFIEIELDRQERTYQELLR | 3.25 |
| SLRENDFIEIELDRQEKTYQELLR | 3.61 |
| SLRENDFIEIELDRQEGTYQELLR | 3.3 |
| SLRENDFIEIELDRQEHTYQELLR | 3.59 |
| SLRENDFIEIELDRQEFTYQELLR | 2.61 |
| SLRENDFIEIELDRQEWTYQELLR | 3.1 |
| SLRENDFIEIELDRQEDTYQELLR | 3.71 |
| SLRENDFIEIELDRQEETYQELLR | 3.37 |
| SLRENDFIEIELDRQEMTYQELLR | 2.92 |
| SLRENDFIEIELDRQEVTYQELLR | 2.9 |
| SLRENDFIEIELDRQELTPQELLR | 4.43 |
| SLRENDFIEIELDRQELTGQELLR | 3.86 |
| SLRENDFIEIELDRQELTFQELLR | 2.31 |
| SLRENDFIEIELDRQELTVQELLR | 3.38 |
| SLRENDFIEIELDRQELTEQELLR | 4.6 |
| SLRENDFIEIELDRQELTKQELLR | 3.99 |
| SLRENDFIEIELDRQELTTQELLR | 3.5 |
| SLRENDFIEIELDRQELTSQELLR | 3.79 |
| SLRENDFIEIELDRQELTCQELLR | 2.93 |
| SLRENDFIEIELDRQELTIQELLR | 2.73 |

| Variant | protein stability index |
| --- | --- |
| SLRENDFIEIELDRQELTMQELLR | 3.22 |
| SLRENDFIEIELDRQELTHQELLR | 3.71 |
| SLRENDFIEIELDRQELTAQELLR | 4.12 |
| SLRENDFIEIELDRQELTLQELLR | 3.12 |
| SLRENDFIEIELDRQELTWQELLR | 2.61 |
| SLRENDFIEIELDRQELTRQELLR | 4.13 |
| SLRENDFIEIELDRQELTQQELLR | 4.47 |
| SLRENDFIEIELDRQELTDQELLR | 4.59 |
| SLRENDFIEIELDRQELTNQELLR | 4.22 |
| SLRENDFIEIELDRQELTYQPLLR | 2.36 |
| SLRENDFIEIELDRQELTYQMLLR | 1.92 |
| SLRENDFIEIELDRQELTYQILLR | 1.9 |
| SLRENDFIEIELDRQELTYQFLLR | 1.69 |
| SLRENDFIEIELDRQELTYQALLR | 2.44 |
| SLRENDFIEIELDRQELTYQGLLR | 2.67 |
| SLRENDFIEIELDRQELTYQCLLR | 1.94 |
| SLRENDFIEIELDRQELTYQLLLR | 1.69 |
| SLRENDFIEIELDRQELTYQQLLR | 3.34 |
| SLRENDFIEIELDRQELTYQNLLR | 2.83 |
| SLRENDFIEIELDRQELTYQDLLR | 2.85 |
| SLRENDFIEIELDRQELTYQKLLR | 2.67 |
| SLRENDFIEIELDRQELTYQHLLR | 2.76 |
| SLRENDFIEIELDRQELTYTELLR | 2.97 |
| SLRENDFIEIELDRQELTYVELLR | 2.62 |

| Variant | protein stability index |
| --- | --- |
| SLRENDFIEIELDRQELTYHELLR | 2.76 |
| SLRENDFIEIELDRQELTYNELLR | 2.65 |
| SLRENDFIEIELDRQELTYSELLR | 3.3 |
| SLRENDFIEIELDRQELTYGELLR | 3.15 |
| SLRENDFIEIELDRQELTYPELLR | 2.95 |
| SLRENDFIEIELDRQELTYMELLR | 2.3 |
| SLRENDFIEIELDRQELTYFELLR | 1.99 |
| SLRENDFIEIELDRQELTYEELLR | 3.58 |
| SLRENDFIEIELDRQELTYYELLR | 2.29 |
| SLRENDFIEIELDRQELTYAELLR | 2.72 |
| SLRENDFIEIELDRQELTYLELLR | 2.04 |
| SLRENDFIEIELDRQELTYRELLR | 2.3 |
| SLRENDFIEIELDRQELTYWELLR | 2.25 |
| SLRENDFIEIELDRQELTYDELLR | 3.7 |
| SLRENDFIEIELDRQELTYIELLR | 1.83 |
| SLRENDFIEIELDRQELTYKELLR | 3.2 |
| SLRENDFIEIELDRQELTYCELLR | 2.16 |
| SLRENDFIEIELDRQWLTYQELLR | 2.55 |
| SLRENDFIEIELDRQYLTYQELLR | 2.15 |
| SLRENDFIEIELDRQVLTYQELLR | 2.48 |
| SLRENDFIEIELDRQSLTYQELLR | 3.48 |
| SLRENDFIEIELDRQTLTYQELLR | 2.76 |

Reference: the supplement of paper PMC10567573
